From US8778888B2, “Cystine knot peptides binding to alpha IIb beta 3 integrins and methods of use” (The Board of Trustees of the Leland Stanford Junior …, priority 2009, dated 2014)
Like-named read-outs stand apart in the source and are kept apart here. Bridge positions count the residues as written; N and C are the ends. Square brackets hold non-standard residues; d marks the D form. Peptide text beside a SMILES is read from it. hArg = N=C(N)NCCCC[C@H](N)C(=O)O; Mpa = O=C(O)CCS

Key:
[1] = target: T1, αvβ3 integrin (Homo sapiens, UniProt P05106+P06756); assay: Yeast-displayed AgTx constructs binding to αvβ3 integrin; conditions: 10 nM αvβ3, the lowest concentration tested
T1 construct: purchased Millipore
T1 sequence (P06756 31-889 limits assumed): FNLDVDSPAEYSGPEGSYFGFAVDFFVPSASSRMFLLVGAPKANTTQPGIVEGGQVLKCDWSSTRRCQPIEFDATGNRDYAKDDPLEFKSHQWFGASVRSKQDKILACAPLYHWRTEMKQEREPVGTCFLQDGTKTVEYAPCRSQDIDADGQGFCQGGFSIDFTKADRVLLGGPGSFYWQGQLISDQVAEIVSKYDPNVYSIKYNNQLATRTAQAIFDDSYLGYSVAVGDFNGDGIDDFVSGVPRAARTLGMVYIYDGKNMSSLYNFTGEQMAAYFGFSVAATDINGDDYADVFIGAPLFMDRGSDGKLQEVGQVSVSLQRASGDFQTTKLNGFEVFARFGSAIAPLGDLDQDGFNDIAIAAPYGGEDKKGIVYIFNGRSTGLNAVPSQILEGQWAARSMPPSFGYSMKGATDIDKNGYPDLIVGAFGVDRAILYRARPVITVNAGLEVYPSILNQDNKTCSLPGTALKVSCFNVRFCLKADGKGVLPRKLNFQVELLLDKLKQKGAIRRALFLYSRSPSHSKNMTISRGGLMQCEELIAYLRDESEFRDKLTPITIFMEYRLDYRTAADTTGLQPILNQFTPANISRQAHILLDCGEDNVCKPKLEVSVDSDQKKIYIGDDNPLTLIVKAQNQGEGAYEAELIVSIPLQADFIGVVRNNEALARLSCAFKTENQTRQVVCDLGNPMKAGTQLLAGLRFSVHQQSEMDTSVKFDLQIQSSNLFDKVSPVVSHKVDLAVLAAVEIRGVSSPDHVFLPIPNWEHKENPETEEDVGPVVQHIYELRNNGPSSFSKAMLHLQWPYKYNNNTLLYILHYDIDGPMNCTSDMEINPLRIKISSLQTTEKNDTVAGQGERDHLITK
T1 sequence (P06756 891-1048 partner limits assumed): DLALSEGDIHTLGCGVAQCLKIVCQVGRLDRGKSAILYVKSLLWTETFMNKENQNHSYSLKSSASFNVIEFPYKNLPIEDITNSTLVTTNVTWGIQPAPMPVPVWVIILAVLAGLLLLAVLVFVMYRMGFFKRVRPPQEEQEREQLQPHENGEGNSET
T1 sequence (P05106 27-788): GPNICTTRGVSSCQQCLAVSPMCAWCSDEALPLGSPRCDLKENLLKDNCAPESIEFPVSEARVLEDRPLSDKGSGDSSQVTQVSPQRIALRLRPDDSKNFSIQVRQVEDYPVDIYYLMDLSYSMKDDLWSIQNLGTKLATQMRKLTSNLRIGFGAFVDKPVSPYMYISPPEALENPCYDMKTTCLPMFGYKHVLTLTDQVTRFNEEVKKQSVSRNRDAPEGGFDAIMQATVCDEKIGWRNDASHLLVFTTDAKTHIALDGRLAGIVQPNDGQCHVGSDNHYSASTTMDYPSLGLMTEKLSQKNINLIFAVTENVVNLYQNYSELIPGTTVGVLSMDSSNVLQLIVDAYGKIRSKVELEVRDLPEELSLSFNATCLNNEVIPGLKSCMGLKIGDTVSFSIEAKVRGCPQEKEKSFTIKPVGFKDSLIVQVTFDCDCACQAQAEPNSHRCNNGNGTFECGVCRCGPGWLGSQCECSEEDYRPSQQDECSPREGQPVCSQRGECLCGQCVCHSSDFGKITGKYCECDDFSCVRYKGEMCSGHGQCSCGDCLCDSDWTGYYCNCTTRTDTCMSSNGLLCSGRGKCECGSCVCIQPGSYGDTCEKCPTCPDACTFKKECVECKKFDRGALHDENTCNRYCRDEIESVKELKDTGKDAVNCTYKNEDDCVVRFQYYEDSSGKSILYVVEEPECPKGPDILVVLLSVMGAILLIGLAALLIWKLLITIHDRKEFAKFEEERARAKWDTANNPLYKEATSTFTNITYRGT
Method: The yeast library was grown in selective media (SD-CAA, 20 g/L glucose, 6.7 g/L yeast nitrogen base without amino acids, 5.4 g/L Nα2HPO4, 8.6 g/L NaH2PO4.H2O, and 5 g/L Bacto casamino acids) and induced in selective media containing galactose (SG-CAA). For library screening, 5 to 25×10^6 yeast (depending on the sort round) were labeled with detergent-solubilized integrin and a 1:250 dilution of chicken anti-c-myc IgY (Invitrogen) in integrin binding buffer (IBB, 20 mM Tris pH 7.5 with 1 mM MgCl2, 1 mM MnCl2, 2 mM CaCl2, 100 mM NaCl, and 1 mg/mL bovine serum albumin) at room temperature for 2 h. The yeast cells were centrifuged at 4° C. and the supernatant was removed by aspiration. The yeast were then resuspended in ice-cold BPBS (PBS containing 1 mg/mL bovine serum albumen) containing a 1:100 dilution of phycoerythrin-conjugated goat anti-chicken IgY secondary antibody (Santa Cruz Biotechnology) and a 1:25 dilution of either fluorescein-conjugated anti-αvβ3 antibody (Biolegend) or fluorescein-conjugated anti-αIIb antibody (Biolegend), as appropriate. After incubation for 20 min on ice, the yeast were centrifuged, aspirated, and stored as pellets on ice until cell sorting. Yeast library screening was performed using a Becton Dickinson FACS Vantage SE instrument (Stanford FACS Core Facility) and CellQuest software. […]

[2] = target: αIIbβ3 integrin (Homo sapiens, UniProt P05106+P08514); conditions: clinical use; cited from earlier work
[3] = system: ADP-induced platelet aggregation; conditions: clinical use; cited from earlier work
[4] = cited from earlier work; for bleeding in patients: clinical use
[5] = system: αvβ3 integrin and the leukocyte integrin Mac-1; conditions: cited from earlier work
[6] = system: human platelets; conditions: read-out: aggregation (IC50; nM) human platelets, platelets activated with 25 μM ADP, A365 end point over 1 h
Method: Human platelets isolated by pheresis were obtained from the Stanford Blood Center and stored in serum with 7% acid/citrate/dextrose (ACD) solution. Prior to use, the platelets were centrifuged, aspirated, washed once with Tyrode's buffer (140 mM NaCl, 3 mM KCl, 12 mM NaHCO3, 0.4 mM NaH2PO4, 2 mM MgCl2, 0.1% glucose, pH 7.4), and counted using a haemacytometer. Counted platelets were resuspended in fresh plasma to a final concentration of approximately 2.8×10^8 cells/mL. 180 μL of the platelet solution, or approximately 5×10^7 platelets, were added to separate wells in a 96-well microtiter plate. AgRP peptide or eptifibatide (Cell Sciences) were added to the wells at varying concentrations, after which the platelets were activated with 25 μM ADP. Absorbance at 365 nm was monitored over 1 hr using a Synergy 4 microplate reader (BioTek Instrumentation) with readings taken every 35 s, with 3 s of shaking between readings. […] Experiments were performed at least 3 times.
Next, the effects of the engineered AgRP peptides on αIIbβ3-mediated platelet aggregation were studied. Three αIIbβ3-specific peptides (2bA, 2bJ, and 2bO) and two β3-specific peptides (b3A and b3I) were tested again. […] Microtiter plates containing platelets in serum in the presence or absence of AgRP peptides were activated using ADP at a final concentration of 25 μM, and absorbance at 365 nm was monitored over 1 h.

For “GCIAEDYGRCTWGGTPCCRGRPCRCSGRGDNDLVCECT [AgTX-1-7A, AgRP 7A loop 4 grafted into AgTx consensus 1]”, the “binding to αvβ3 integrin on yeast surface” value [1] was “Binding was observed at 10 nM αvβ3”.
For “Abciximab: αIIbβ3 integrin-specific antibody fragment c7E3”, the “blockage of αIIbβ3 integrin” value [2] is listed as over 90%, the “inhibition of ADP-induced platelet aggregation” value [3] is listed as over 80% and the bleeding in patients [4] is listed as “bleeding issues in many patients”. For the same molecule, the “persistence of the antibody in the patient” value ([4]; in spite of a 12-hour infusion) was “over two-thirds of the antibody persists in the patient for several weeks” and the “binding to other integrins” value [5] was “also binds to αvβ3 integrin and the leukocyte integrin Mac-1”.
In the case of “GCIAEDYGRCTWGGTPCCRGRGCICSGRGDNDLVCECT [AgTx2-7A, AgRP 7A loop 4 grafted into AgTx consensus 2]”, the “binding to αvβ3 integrin on yeast surface” value [1] is reported as “Binding was observed at 10 nM αvβ3”.
For `N=C(N)NCCCC[C@@H]1NC(=O)CCSSC[C@@H](C(N)=O)NC(=O)[C@@H]2CCCN2C(=O)[C@H](Cc2c[nH]c3ccccc23)NC(=O)[C@H](CC(=O)O)NC(=O)CNC1=O` [eptifibatide, Mpr-Har-Gly-Asp-Trp-Pro-Cys, reference compound] ([Mpa][hArg]GDWPC-NH2; disulfide 1-7), the IC50 [6] is listed as 94 ± 14 nM, the IC50 ([6]; listed as Eptifibatide) is listed as 80 nM and the bleeding in patients [4] is listed as “no increases in bleeding have been reported”.
